System: Cc1[nH]c2ccccc2c1CCN
Experiment: steady-state kinetics of halogenation
Assay type: biochemical, Lentzea aerocolonigenes
Conditions: 21 °C

Row | Substance | Km [µM] | kcat [s⁻¹] | kcat/Km [M⁻¹ s⁻¹] | Km (variant 3-LSR) [µM] | kcat (variant 3-LSR) [s⁻¹] | kcat/Km (variant 3-LSR) [M⁻¹ s⁻¹]
1 | RebH (Lentzea aerocolonigenes) | 16.8 ± 3.8 | 0.06 ± 0.0057 | 3600 |  |  | 
2 | RebH (Lentzea aerocolonigenes; E423D/E461G/K145M/M71V/N166S/Q494R/S130L/S2P) |  |  |  | 40.2 ± 3.7 | 0.013 ± 0.00036 | 330
